Data reported in IntAct's records for PubMed 23142976.

B1: Autophagy-related protein 3 (Saccharomyces cerevisiae), P40344 (parent)
chain: MIRSTLSSWREYLTPITHKSTFLTTGQITPEEFVQAGDYLCHMFPTWKWNEESSDISYRDFLPKNKQFLIIRKVPCDKRAEQCVEVEGPDVIMKGFAEDGDEDDVLEYIGSETEHVQSTPAGGTKDSSIDDIDELIQDMEIKEEDENDDTEEFNAKGGLAKDMAQERYYDLYIAYSTSYRVPKMYIVGFNSNGSPLSPEQMFEDISADYRTKTATIEKLPFYKNSVLSVSIHPCKHANVMKILLDKVRVVRQRRRKELQEEQELDGVGDWEDLQDDIDDSLRVDQYLIVFLKFITSVTPSIQHDYTMEGW
partner: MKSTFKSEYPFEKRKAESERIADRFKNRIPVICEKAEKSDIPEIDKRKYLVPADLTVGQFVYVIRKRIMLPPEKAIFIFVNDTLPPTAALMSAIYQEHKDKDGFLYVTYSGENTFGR
B2: Ubiquitin-like modifier-activating enzyme ATG7 (Saccharomyces cerevisiae), P38862 (parent)
chain: MSSERVLSYAPAFKSFLDTSFFQELSRLKLDVLKLDSTCQPLTVNLDLHNIPKSADQVPLFLTNRSFEKHNNKRTNEVPLQGSIFNFNVLDEFKNLDKQLFLHQRALECWEDGIKDINKCVSFVIISFADLKKYRFYYWLGVPCFQRPSSTVLHVRPEPSLKGLFSKCQKWFDVNYSKWVCILDADDEIVNYDKCIIRKTKVLAIRDTSTMENVPSALTKNFLSVLQYDVPDLIDFKLLIIRQNEGSFALNATFASIDPQSSSSNPDMKVSGWERNVQGKLAPRVVDLSSLLDPLKIADQSVDLNLKLMKWRILPDLNLDIIKNTKVLLLGAGTLGCYVSRALIAWGVRKITFVDNGTVSYSNPVRQALYNFEDCGKPKAELAAASLKRIFPLMDATGVKLSIPMIGHKLVNEEAQHKDFDRLRALIKEHDIIFLLVDSRESRWLPSLLSNIENKTVINAALGFDSYLVMRHGNRDEQSSKQLGCYFCHDVVAPTDSLTDRTLDQMCTVTRPGVAMMASSLAVELMTSLLQTKYSGSETTVLGDIPHQIRGFLHNFSILKLETPAYEHCPACSPKVIEAFTDLGWEFVKKALEHPLYLEEISGLSVIKQEVERLGNDVFEWEDDESDEIA
partner: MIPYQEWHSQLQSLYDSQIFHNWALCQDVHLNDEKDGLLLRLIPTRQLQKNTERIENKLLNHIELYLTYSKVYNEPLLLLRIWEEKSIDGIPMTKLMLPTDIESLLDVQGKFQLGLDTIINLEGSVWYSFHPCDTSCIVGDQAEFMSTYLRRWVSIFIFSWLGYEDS
B3: Ubiquitin-like modifier-activating enzyme ATG7 (Saccharomyces cerevisiae), P38862 (parent)
chain: B2 chain
partner: B1 chain

Variants of: B1
Details: with atg8_yeast ATG8, P38182

Q: For R72A;K73A;Y168A, which “effect of a mutation on the interaction” value is on record?
A: Its value is “disrupting interaction strength”.

Variants of: B2
Details: with atg10_yeast ATG10, Q07879

Q: For Y137A, which “effect of a mutation on the interaction” value is on record?
A: The value was “decreasing interaction strength”.

Q: How did the “effect of a mutation on the interaction” value turn out when V285D was run?
A: The value was “disrupting interaction strength”.

Q: With C507A as the variant, how does the “effect of a mutation on the interaction” value read?
A: The value was “disrupting interaction strength”.

Variants of: B3
Details: with atg3_yeast ATG3, P40344

Q: K14A;F16A;D18A was tested. Which “effect of a mutation on the interaction” value did it give?
A: Its value is “decreasing interaction strength”.

Q: With F16A;F61A as the variant, how does the “effect of a mutation on the interaction” value read?
A: Its value is “decreasing interaction strength”.

Q: Which “effect of a mutation on the interaction” value does the source give for P283D here?
A: Its value is “decreasing interaction strength”.

Q: Which “effect of a mutation on the interaction” value does the source give for V285A here?
A: The value was “decreasing interaction strength”.

Q: With C507A as the variant, how does the “effect of a mutation on the interaction” value read?
A: The value was “disrupting interaction strength”.
